Data: US20120058906A1 (published 2012)

Assays:
[1] = target: T1, rHuman HGF R/c-MET/Fc Chimera, CF (R&D Systems Cat#358-MT/CF) (human, UniProt P08581 25-932); assay: ECL (MSD multi-spot), antigen spotted on plate; Fab 8 nM; blank 1117
T1 construct: Bought protein; also called HGF R/Fc; hepatocyte growth factor receptor; Fc part of the bought chimera not given

[2] = target: T2, Recombinant Human DLL4 (R&D Systems Cat#1506-D4/CF) (human, UniProt Q9NR61 27-524); assay: as above
T2 construct: Bought protein; also called rHuman DLL4; delta-like protein 4

[3] = target: T3, rHuman IGF-1 sR (IGF-1 sR), CF (R&D Systems Cat#391-GR) (human, UniProt P08069 31-932); assay: as above
T3 construct: Bought soluble receptor; also called insulin-like growth factor-1 soluble receptor; IGF-R1

[4] = target: T4, rHuman EGF R/Fc Chimera, CF (R&D Systems Cat#344-ER) (human, UniProt P00533 25-645); assay: as above
T4 construct: Bought protein; also called epidermal growth factor receptor; Fc part of the bought chimera not given

[5] = target: T1, rHuman HGF R/c-MET/Fc Chimera, CF (R&D …); assay: ECL (MSD multi-spot), antigen spotted on plate; Fab 200 nM; blank 1787
[6] = target: T2, Recombinant Human DLL4 (R&D Systems …); assay: as above
[7] = target: T3, rHuman IGF-1 sR (IGF-1 sR), CF (R&D …); assay: as above
[8] = target: T4, rHuman EGF R/Fc Chimera, CF (R&D …); assay: as above
[9] = target: T1, rHuman HGF R/c-MET/Fc Chimera, CF (R&D …); assay: ECL (MSD multi-spot), antigen spotted on plate; Fab 1.6 nM; blank 713
[10] = target: T2, Recombinant Human DLL4 (R&D Systems …); assay: as above
[11] = target: T3, rHuman IGF-1 sR (IGF-1 sR), CF (R&D …); assay: as above
[12] = target: T4, rHuman EGF R/Fc Chimera, CF (R&D …); assay: as above
[13] = target: T1, rHuman HGF R/c-MET/Fc Chimera, CF (R&D …); assay: ECL (MSD multi-spot), antigen spotted on plate; Fab 40 nM; blank 1442
[14] = target: T2, Recombinant Human DLL4 (R&D Systems …); assay: as above
[15] = target: T3, rHuman IGF-1 sR (IGF-1 sR), CF (R&D …); assay: as above
[16] = target: T4, rHuman EGF R/Fc Chimera, CF (R&D …); assay: as above
[17] = target: T1, rHuman HGF R/c-MET/Fc Chimera, CF (R&D …); assay: ECL (MSD multi-spot), antigen spotted on plate; Fab 1000 nM; blank 2186
[18] = target: T2, Recombinant Human DLL4 (R&D Systems …); assay: as above
[19] = target: T3, rHuman IGF-1 sR (IGF-1 sR), CF (R&D …); assay: as above
[20] = target: T4, rHuman EGF R/Fc Chimera, CF (R&D …); assay: as above
[21] = target: T1, rHuman HGF R/c-MET/Fc Chimera, CF (R&D …); assay: ECL (MSD multi-spot), antigen spotted on plate; Fab 0.32 nM; blank 518
[22] = target: T2, Recombinant Human DLL4 (R&D Systems …); assay: as above
[23] = target: T3, rHuman IGF-1 sR (IGF-1 sR), CF (R&D …); assay: as above
[24] = target: T4, rHuman EGF R/Fc Chimera, CF (R&D …); assay: as above
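Also: blank spot per well as comparator with Hit at signal to blank ratio of 4 or more.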

ECL signal [1]: 1620
ECL signal [2]: 44800
ECL signal [3]: 1520
ECL signal [4]: 1470
ECL signal [5]: 2840
ECL signal [6]: 58700
ECL signal [7]: 2780
ECL signal [8]: 2920
ECL signal [9]: 861
ECL signal [10]: 5920
ECL signal [11]: 966
ECL signal [12]: 987
ECL signal [13]: 2110
ECL signal [14]: 62000
ECL signal [15]: 2140
ECL signal [16]: 2300
ECL signal [17]: 3310
ECL signal [18]: 35300
ECL signal [19]: 3070
ECL signal [20]: 3580
ECL signal [21]: 710
ECL signal [22]: 916
ECL signal [23]: 630
ECL signal [24]: 709
B1: Fab VH1-46_IGHD6-6*01>1_IGHJ1*01_S104F & L6_IGKJ1*01 (Fab, V domains shown)
VH: QVQLVQSGAEVKKPGASVKVSCKASGYTFTSYYMHWVRQAPGQGLEWMGIINPSGGSTSYAQKFQGRVTMTRDTSTSTVYMELSSLRSEDTAVYYCAREEYSSFSAEYFQHWGQGTLVTVSS
VL: not shown
notes: Expressed in E. coli as a Fab; The heavy chain also carries the CH1 with Flag and His tags from Plasmid A, and the light chain the kappa CL from Plasmid C; also called VH1-46_IGHD6-6*01_IGHJ1*01 S104F & L6_IGKJ1*01; IGHV1-46*01
